Results published in patent publication US20260132223.

Key:
[1] = biological target: TdT (murine terminal deoxynucleotidyl transferase, single cysteine at position 182, conjugated to dNTP via amino acid ester linker) (Mus musculus) (UniProt P09838); experiment: EMSA; settings: Linker 1 or 2 dTTP conjugate, 60 s; covalent primer-extension complex on SDS-PAGE gel shift
[2] = biological target: TdT (murine terminal deoxynucleotidyl transferase, single cysteine at position 182, conjugated to dNTP via amino acid ester linker) (Mus musculus) (UniProt P09838); settings: hydroxymethyl scar on 3'-terminal T base; dTTP ester-linker conjugate; same yield as natural unscarred primer

TdT (murine terminal deoxynucleotidyl transferase, single cysteine at position 182, conjugated to dNTP via amino acid ester linker) (Mus musculus), sequence (P09838 other isoform, or with tags, fused parts or gaps): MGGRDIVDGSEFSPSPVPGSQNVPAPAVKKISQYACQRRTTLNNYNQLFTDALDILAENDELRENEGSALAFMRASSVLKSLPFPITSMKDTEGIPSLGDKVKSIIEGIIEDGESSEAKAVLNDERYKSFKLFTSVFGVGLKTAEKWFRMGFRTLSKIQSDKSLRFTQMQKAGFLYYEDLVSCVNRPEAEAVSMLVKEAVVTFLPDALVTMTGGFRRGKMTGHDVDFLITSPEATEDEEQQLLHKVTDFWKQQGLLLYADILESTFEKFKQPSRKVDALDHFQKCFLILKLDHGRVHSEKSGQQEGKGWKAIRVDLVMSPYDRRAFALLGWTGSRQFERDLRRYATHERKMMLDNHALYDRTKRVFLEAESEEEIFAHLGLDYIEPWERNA

Row | Substance | activity [1] [% extension] | activity (% extension in 1 s) [2]
1 | ssDNA primer | > 95 | –
2 | primer with 3'-terminal hydroxymethyl-scarred dT | – | 35
